In a protein production outcome set (Wang et al. 2014):

Assay: label from the status in PepcDB records

Sequence | protein production
MNQVVEFLKIFIPLFIVIDPFGSLVLFTSMTYNFNESEKLRATKDAVFYGGIILVLFALAGEYIIYFFGISIEALEMAGGIILLLMAVEMIMEGNRPKSSGSEIVDYDIGIVPFATPMLAGPGAISLVIILMKGPIIAKIYTIISIAIIFAMVYIFFKWSSVVSKFIGAKVMKAISRIFGLLLAGFAIQYFIDAIVALSLLK | failed
MDDGDTADDIMDATYRALCTHGYADLTMQDIADESDKSKAALHYHYDSKHDLLCAFLEYLYDGFVDRIEDPAGETPHERLLSLIDSVLDKPDDGSEEFGTAILEIRAHAPYEPGFRERLTKFDDYLVDELEVILEDGIADGTFKSDLDADETAQFIVTVLTGAATERVTTGRPVKCTRRMLTEYVETHLLDGQQEVTA | not failed
MPVCILLLRFRDDVHNERFYTLVGIFIVGALCLMILGGTFFYIEYKRAQKQTFVMFFKGSLKGLVTTAPVTYRGVKIGEVKVIEITENKEHSKVLIPVYVQFFVERTYGFSQDPIHLLIDNGYVANITKPNLLTGVAEIELIKPTPAVKYKQTYYHSYPVFPTHNSAEKYTSMEEAFEAAKKAFEDVSELVRSKEIQDTLEAIQKVSENLGQLASSLNQDVPSVVAYLNQSLKQITSAAYSTQNLTDYLSRYPESLLRGKRLEHHHHHH | failed
MNSLPGSIQTSRTNQQRPLISVIVPAYNAEDFILEALRSITAQDYEPLEILLVDDGSTDGTADLVRREMPTVRIIRQDNTGVAEARNTGLRNACGEFICLLDADDGWCPGKLHAQVQYLQQHPQTGAVYHAWQVWRPDAEGNFVSMPAPVVADSTAIDPALSGWIYPQLLMDCIVHTSTIMMRREFVEQLGFFRAELINGEDYDYWLRLSRLTRIDKLVGVYSFYRGSPGSLTNSVKPVNYEYNVVSAAAAKWGLAAPDGRALAAVDFQRRLGKLAFDFAYRHYRWGSARIARRAALQAWRHDPRRYKALLFWLASFFKREPRSAVQG | failed
MRGRMTRSQLILAILAGLVISIDNMISIVAFSSLIYQGALEIYIPLVINILAISVIIISASYLFMSSPPYAIAQLQDEAAILYSAMGLVIIKSMPSSSTNEAIFITILFMLGVTTCLTGLSFYFVGKFRFGNIIRYLPYPVICGFMAATGWLVLSGTFALLTGKALHQNWLVFFHKEEILLWAPGFIAGIVVYIFKEKLGYRYALQLMFISLVILFYALFYIFNLEYLVDPTEGYVLGPFNQSHIDSLMKPEIWQMIHYPFSMTLLNYIGLVILVSFIALLLNASSYELIVNKQLDLNKELRIAGIGNVFSGLLGGMVGYLSLSASTVAKEYGGARIIGVMAFVPMLLILCFGAVVVECFPKMAIGCYLFYIAFCFLSEWLINTWRLLNLSEYLIVLLILVIAIVFNMITAVAIGTVISIFIFAFRYSKINPVKYLFSGADYNSSFERNPISQSILSTQGDEIQFLKLQGFLFFGSIYRLLQLIKSIQKARYIILDFELVYNIDSSRIILMKNLKLHAEKNNISFAICSLKPIVYHELMKTNLLQSKTNWLKVFTDQESALEWCEDQVIEKYTENINIEEVTLEKQLLYLGFSSELVAWISEKASIKPYNPDDIICHEGEESNSVYFIHRGRVTAFVGDKRVLVVGSGNVLGEIAIYTHKKRTATLKTNEKTIVYEIDLKSIQELSKNKPLLLVQFHVCMAKILANRLSVLNKRIKVFDSTAILQ | failed
MAEGGGCRERPDAETQKSELGPLMRTTLQRGAQWYLIDSRWFKQWKKYVGFDSWDMYNVGEHNLFPGPIDNSGLFSDPESQTLKEHLIDELDYVLVPTEAWNKLLNWYGCVEGQQPIVRKVVEHGLFVKHCKVEVYLLELKLCENSDPTNVLSCHFSKADTIATIEKEMRKLFNIPAERETRLWNKYMSNTYEQLSKLDNTVQDAGLYQGQVLVIEPQNEDGTWPRQTLQSKSSTAPSRNFTT | failed
MAQDIIDGINPTRMELLSLKNRTKLAVKGHGLLKEKRDALIKEFFDILDRVKGVREAAERSLKEANEALLEAQIAMGDLAVRKASLSVKESIDVDIKSRSVMGVSVPVTNVKMEERSIIDRGYSFSDTTIQLDEAAKKFEESIKFLIELGEVEKTIFLLAEEIEATKRRVNALEHIMIPRFENTEKYIDMRLQEMERENFVRLKMIRSTIEKKDNEAKEAAIEEEAAEVEA | failed
MLKTTISPIFSSFTGKPKCSSKLFFRAFSKVVLQDTPPSARRNASTNLTTLHKGPPTSAYVHLPFCRKRCHYCDFPILALGMSSSSARPSNVYEEGKEDDPRITNYVNLLVREIKATRTDFDTNPNLETVFFGGGTPSLVPPKLVSLILETLSLNFGLSPDAEISMEMDPGTFDGQKLKDLMKLGVNRVSLGVQAFQDELLKACGRAHGVSQVYEAIEFVKECGVENWSMDLISSLPHQTLEMWEESLRLAIESQPNHVSVYDLQVEQGTKFGNLYTPGQSPLPSETQSAEFYKTASSMLRGAGYEHYEVSSYSRDGFKCKHNLIYWKNKPFYAFGLGSASYVGGLRFSRPRRLKEYTNYVADLENGAANWCGNGDVDLKDVATDILMLSFRTSKGLELKEFGEAFGSEVVKSICKVYEPYVESGHIVCLDDMRSEVMIDEFKTLVANDEVKIEDHVRYLRLKDPDGFLLSNELISLSFGVVAP | failed
MSHYQCAVCSSIDANPNSLAVNYQCLADSSVVGEFHVLPRHQGYTDLLHGGIASSLLDGAMTHCLLFRDIQALTAQLDVRYHAPIELDEHVTITAHCEGERRGIYQLVAQLLVNNEVRVTAKGKFIRPKLEHHHHHH | not failed
MGGIYRLSLKSTEATAERLSCDTRCNYEDRDLAYSPDGRWLAIARRFSNISEDIFIRDLASAHEKRLTQGLEDIRGLSWTPDSQALVFATEDSGSSNGFTLDINTAQIRSLDVEGMSYPSSVSAEGELVYHQYHRQFQMAYFSLGDKVPGSLFPLLYSGVSHRNPDYSPEAKRIVFVSSETGYNEIWTSDINGQKLEQLTQLKSRVAYPRWSPDGSRIAFIAPDDRNEGNRIFILDLTNKNITALASSYHNHGRPSWNWQGTAVLASTADGITEFYLDNRAPRVISSLSMAVGFAKSATELVFSRDGENGLWQINLTQPEHVEQLISTDAFRAGNNWVLTASGVYFKSSNGHEQLLNYWEASSQQVTSLLRVPRSSLSGFGSMTYIPEANRLVMTLDGFPQRDIILLKHKLLKLEHHHHHH | failed
MKKASEYYYYLGDICWRKEKTDSAKYYFMEGIKTDETYAMNYVGIGIITMKSNATEGQRSFDKALQMTSQKNSQVLNAIGEYYILEADKAELPKGIALLKKSTEIDAKNAMSWILLGDAYGKQAEGSKQAESYGKAANLFHSVPLLKMKYGKMYAAARNKDLSIKYYNEGLAADPTYGPIYRELGDLYNRFRQYDLAIQNYKKYLTYIDSNDDVEFRYADFLFKNNNYAEAIEVFNKLEAKKYNSPYIYNRRAVCYYELEHHHHHH | failed
MSGRLRNALHKIRDRGLTPRDLFSYGCIAGHRLLSGAWGTLMLRAKAGCLGITVGKGCECFGTVILSRWPGSRIELGDGVSIISSSRRCTSATIHAPTRLRTFAPTARIILEDGVSLNGTAITARSRTIRIGKGTMVAPNCVITDSDFHAMWPPETRLDTPAFERDADVTIGQHVWLGMRCIVLKGVTIGDGAIVAAGSVVTRDVPPATLVAGVPARVVRHLP | failed
MSADGSEYGRYFEQLQKVNLTVRLGDTGSFDGTAAITSLKGSLAWLELFGAEQPPPNTLSEGAEVSVSVWTGGALCRCDGRVETLRDDRQFAIRLVGRVRELQRREYF | not failed
MGKGCAASLWPTAIGPRMPRPLSLLPRPAGLMLRLVGSLVLTLWLVWLLADRLALLAPGEVIAALSGLPVWRLAAALLATAVSFWALGRYDGVAHRHFRTGLAARQARLCGMAAIGFSQFVGCGVLSGSFARWRMIGDLTPALALRLTTFVAITFLLALAFWASALCLIAPPLPGLRQTGVAGLALLLPITLVLFLLPRLRLGRFTLRLPSLRALGAILGWAALDLAAAAAVLWVLLPALSWTDLPLLMSAYVLALAAGLLSGAPGGLGAFELTLLALLPAIPGAELMAAVLAYRLIYVALPALAAVPLLLSPPDLRLGRQHRLPRRIHHHPPARPRAETAVVTQSRGYVLSGGFADMAVVETDQSLIMLFDPVCGGRHPDLYLLARRAAQRNLFALVYKCSARVAVSARRAGWRVRHVSDEATLVPADFTIAGSHRRQLRRKLRQAERAGLTVRRASTLPLTQMAAVDRLWQEANGRAWGLTMGRFAPDYLARQAVFLAWRGARLEGFVSFHRSRDEWCLDLMRTHPDAPEGTMHALVATALAATAAARVPRLSLAAVPAGRLGHRFDGLRQFKDSFAPRWQPLYMAAPGWTAIALAAADLARHVQAPPPLAAPDAQPAHDLDEEIEFASLTGT | failed
MTRPTHPNALIWLLLSIAIIALDQATKAWVLTSLPEYIPVPVIHGFWNWYRSYNTGAAFSFLSDAGGWQMWLFIALALGISGLLTFWLSRTPRREWRSALPYALIIGGGIGNVIDRFLHGHVVDFIQWYVGSYYWPSFNLADSAIVAGAIGIGLLSLFDSKHSPKTP | failed
MSLAEVGSKSVLFVCLGNICRSPIAEAVFRKLVTDEKVSDNWAIDSSAVSDWNVGRPPDPRAVSCLRNHGISTAHKARQITKEDFATFDYILCMDESNLRDLNRKSNQVKNCKAKIELLGSYDPQKQLIIEDPYYGNDSDFEVVYQQCLRCCKAFLEKTYEGHHHHHH | not failed
MSFKNFKCVPKMIFGRGSFVQLDTVLEQERTDANDFVVFLVDDVHQHKPLAARVPNKAHDLVIYVNVDDEPTTVQVDELTAQVKAFNTKLPVSVVGLGGGSTMDLAKAVSLMLTNPGSSSEYQGWDLIKNPAVHHIGIPTVSGTGAEASRTAVLCGPVRKLGLNSDYTVFDQIIMDSELIAGVPTDQWFYTGMDCFIHCVESLQGTYLNEFAKAFAEKSMDLCREVYLDDHPEKDDKLMMASYMGGMSIAYSQVGACHAVSYGLGYVLGYHHGIGNCLAFDVLEEFYPEGVAEFRKMMEIHNITLPKNICKDLPDETIAKMVAVTKSMGPLWDNVYGKGWEEKVTDEMLTKLFRRI | not failed
MVWPFKSKFRKQIARIEITGAIASGTRKRVLEALKTVEERKFPALLLRIDSPGGTVGDSQEIYSALKRLREKIKIVASFGNISASGGVYIGMGAEHIMANPGTITGSIGVILRGNNLERLLDKIGVSFKVIKSGPYKDILSFDRELTEPEQDILQELIDTSYQQFVQTVAEGRSLAVDKVKSFADGRIFTGQQALELGVVDRLGTEEEARRWTAELVGLDPEKTPCYTLEERKPLLSRVLPGSRKGYSRLGASIDWLEFEMSTSGLPLWLYRP | failed
MSVALPRSPDVDGSLSEAPNRIDVVTFGCRLNTYESEVMRREAESAGLGALQGGAVIFNTCAVTGEAVRQARQAIRKARRDNPGARIIVTGCAAQTEPEKFAAMDEVDLVLGNEEKLKANSYRALPDFGVNDTEKARVNDIFSVRETAGHMVDAIEGRARAFVQVQNGCDHRCTFCIIPYGRGNSRSVPMGAVVEQVKRLAGNGYAEIVLTGVDMTSFGADLPGAPKLGRLVKTILKQVPDVKRLRLSSIDSIEADDDLLDAIATEPRLMPHLHLSLQSGDDMILKRMKRRHLRDQSIRFCEDVRKLRPEIVFGADIIAGFPTETDAMFENSIKIVEECGLTHLHVFPFSPREGTPAARMPQVRREVVKQRAARLRAAGEAAYRRHLSSLPGTRQSILIERDGLGRTEGFTLAALGTGAPGEIVEATITGHDGARLNAVPLAARAA | failed
